Measurements: patent publication US20200048648

Legend:
Assay in all cases: cell_activity
[1] = test system: MsCOMT_T01.1 TALE nuclease right monomer (synthetic construct); details: value for nuclease pair; alfalfa protoplasts, 28 C, 2 days
[2] = test system: MsCOMT_T02.1 TALE nuclease right monomer (synthetic construct); details: value for nuclease pair; alfalfa protoplasts, 28 C, 2 days
[3] = test system: MsCOMT_T03.1 TALE nuclease right monomer (synthetic construct); details: value for nuclease pair; alfalfa protoplasts, 28 C, 2 days
[4] = test system: MsCOMT_T02.1 TALE nuclease left monomer (synthetic construct); details: value for nuclease pair; alfalfa protoplasts, 28 C, 2 days
[5] = test system: MsCOMT_T01.1 TALE nuclease left monomer (synthetic construct); details: value for nuclease pair; alfalfa protoplasts, 28 C, 2 days; left site boundary inferred from 15 bp spacer
[6] = test system: MsCOMT_T03.1 TALE nuclease left monomer (synthetic construct); details: value for nuclease pair; alfalfa protoplasts, 28 C, 2 days

“ACATATCAGATGAAGAA (double strand) [MsCOMT_T01.1 right half-site (top strand)]” gave an activity (% mutation frequency) [1] of 12.6.

“CTGGACCTGGTGCTCAA (double strand) [MsCOMT_T02.1 right half-site (top strand)]” gave an activity (% mutation frequency) [2] of 15.9.

Sequence “GCACCAGTTATGTTGGA (double strand) [MsCOMT_T03.1 right half-site (top strand)]” has an activity (% mutation frequency) [3] of 14.1.

Work on “TGAACTTGATCTCTTAG (double strand) [MsCOMT_T02.1 left half-site]” yielded an activity (% mutation frequency) [4] of 15.9.

Sequence “TTCAACAGGTGAAACTC (double strand) [MsCOMT_T01.1 left half-site]” has an activity (% mutation frequency) [5] of 12.6.

“TTGCTTCTCAGCTACCA (double strand) [MsCOMT_T03.1 left half-site]” gave an activity (% mutation frequency) [6] of 14.1.
